# Measurements published in paper PMC3983792 (Nature, 2012).
# B1: GST-fused JunD (residues 1–150) (domain or fragment, human, UniProt P17535 1-150, looked up)
# chain: METPFYGDEALSGLGGGASGSGGSFASPGRLFPGAPPTAAAGSMMKKDALTLSLSEQVAAALKPAAAPPPTPLRADGAPSAAPPDGLLASPDLGLLKLASPELERLIIQSNGLVTTTPTSSQFLYPKVAASEEQEFAEGFVKALEDLHKQ
# B2: MLL1_(MBM-LBM)Δ (MLL1 residues 6–153 with loops 16–22 and 36–102 deleted) (domain or fragment, human, UniProt Q03164 6-153, looked up)
# chain: RWRFPARPGTGRRGLGGAPRQRVPALLRVGPGFDAALQVSAAIGTNLRRFRAVFGESGGGGGSGEDEQFLGFGS
# Key:
# [1] = molecular target: menin-MLL1_(MBM-LBM) complex (human) (UniProt O00255); test: ITC
# full-length menin [2] = molecular target: T1, full-length menin (human, UniProt O00255-2 1-610); test: pull-down
# T1 sequence (looked up): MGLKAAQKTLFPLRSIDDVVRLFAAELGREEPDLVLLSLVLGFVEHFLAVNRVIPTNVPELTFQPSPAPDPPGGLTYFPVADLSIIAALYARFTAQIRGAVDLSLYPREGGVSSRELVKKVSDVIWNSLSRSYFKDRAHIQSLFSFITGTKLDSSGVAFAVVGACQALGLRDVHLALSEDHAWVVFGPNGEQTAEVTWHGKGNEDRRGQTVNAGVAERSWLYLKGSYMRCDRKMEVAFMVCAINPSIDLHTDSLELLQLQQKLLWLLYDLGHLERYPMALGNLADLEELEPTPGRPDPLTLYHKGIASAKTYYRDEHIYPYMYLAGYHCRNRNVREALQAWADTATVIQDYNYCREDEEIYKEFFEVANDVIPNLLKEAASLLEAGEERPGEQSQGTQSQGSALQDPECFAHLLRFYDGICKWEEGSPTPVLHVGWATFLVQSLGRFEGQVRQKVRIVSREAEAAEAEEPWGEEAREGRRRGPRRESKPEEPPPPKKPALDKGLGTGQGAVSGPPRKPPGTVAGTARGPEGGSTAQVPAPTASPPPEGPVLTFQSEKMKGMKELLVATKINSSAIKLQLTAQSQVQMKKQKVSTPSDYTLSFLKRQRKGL
# [3] = molecular target: T2, meninΔ (human menin with the unstructured loop, residues 460–519, deleted) (human, UniProt O00255-2 1-610, residues 460–519 deleted); test: ITC
# T2 sequence (looked up): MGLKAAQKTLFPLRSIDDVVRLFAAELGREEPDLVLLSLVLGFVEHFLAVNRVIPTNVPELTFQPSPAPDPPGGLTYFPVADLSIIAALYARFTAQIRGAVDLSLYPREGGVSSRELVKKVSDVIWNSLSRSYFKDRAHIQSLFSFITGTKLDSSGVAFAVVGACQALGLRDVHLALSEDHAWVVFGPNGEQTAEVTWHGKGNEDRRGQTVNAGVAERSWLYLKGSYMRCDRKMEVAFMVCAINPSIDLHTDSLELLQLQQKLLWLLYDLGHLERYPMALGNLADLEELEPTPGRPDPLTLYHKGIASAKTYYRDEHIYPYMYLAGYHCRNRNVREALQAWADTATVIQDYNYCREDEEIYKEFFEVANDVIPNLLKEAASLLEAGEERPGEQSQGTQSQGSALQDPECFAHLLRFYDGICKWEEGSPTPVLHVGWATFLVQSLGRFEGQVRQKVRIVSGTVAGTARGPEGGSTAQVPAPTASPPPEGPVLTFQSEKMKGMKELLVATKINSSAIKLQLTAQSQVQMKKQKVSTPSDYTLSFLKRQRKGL
# full-length menin [4] = molecular target: T1, full-length menin; test: ITC
# [5] = molecular target: T2, meninΔ (human menin with the …); test: crystal structure
molecule,measurement,setting,value
LEDGFIBD (IBD domain of LEDGF) (domain or fragment),Kd,[1],470 nM
B1,binding result,full-length menin [2],binds
"ARGRFPGRPRGAGGGGGRGG (peptide, UniProt Q9UMN6 16-35, looked up) [MLL2MBM (MLL2 residues 16–35)]",Kd,[3],120 nM
"SPGRLFPGAPPTAAAGSMMKK (peptide, UniProt P17535 27-47, looked up) [JunDMBM (JunD residues 27–47, menin-binding motif)]",binding result,[3],binds
"RWRFPARPGTTGGGGGGGRR (peptide, UniProt Q03164 6-25, looked up) [MLL1MBM (menin-binding motif, residues 6–25 of MLL1)]",Kd,[3],82 nM
same,binding result,full-length menin [4],binds
"RWRFPARPGTTGGGGGGGEE (peptide, UniProt Q03164 6-25, looked up) [MLL1MBM with 24RR25 substituted with two glutamates]",fold decrease in binding affinity against wild-type MLL1MBM,[3],21 fold
B2,binding result,[5],binds
"SPGRLFPGAPPTAKK (peptide, UniProt P17535 27-47, looked up) [JunDMBMΔ (JunD residues 27–47 with residues 40–45 deleted)]",binding result,[5],binds
